Test results reported in patent US20250320304A1 (Janssen / Centocor, published 2025).

T1: BCMA on H929-Fluc-GFP cells (UniProt Q02223 1-184)
T1 sequence (looked up): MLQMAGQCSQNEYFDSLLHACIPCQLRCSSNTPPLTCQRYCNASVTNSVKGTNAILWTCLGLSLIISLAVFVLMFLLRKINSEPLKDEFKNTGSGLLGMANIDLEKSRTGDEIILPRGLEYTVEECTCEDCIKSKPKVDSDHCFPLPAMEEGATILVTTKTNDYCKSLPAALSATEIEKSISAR

T2: BCMA (BCMW37.DB.001) (UniProt Q02223 1-54, limits assumed)
T2 construct: The SPR antigen itself is named only by its batch label
T2 sequence (looked up): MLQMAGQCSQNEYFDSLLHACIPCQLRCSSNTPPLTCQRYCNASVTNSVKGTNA


Assays:
[1] = target: CD3 on human donor Pan T cells (human); assay: cell-based or functional assay
[2] = target: T1, BCMA on H929-Fluc-GFP cells; assay: cell-based or functional assay
CD3W220.001 = assay: SPR, CD3 antigen CD3W220.001
BCMA (BCMW37.DB.001) = target: T2, BCMA (BCMW37.DB.001); assay: SPR, BCMA antigen BCMW37.DB.001

CD3 on human donor Pan T cells (human), sequence (chain, as listed by the source): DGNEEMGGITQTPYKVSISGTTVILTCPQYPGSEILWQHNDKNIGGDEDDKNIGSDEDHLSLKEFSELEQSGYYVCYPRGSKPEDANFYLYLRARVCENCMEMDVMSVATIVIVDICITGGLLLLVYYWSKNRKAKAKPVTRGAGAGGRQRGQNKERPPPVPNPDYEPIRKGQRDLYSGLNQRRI
BCMB1049, sequence (chain): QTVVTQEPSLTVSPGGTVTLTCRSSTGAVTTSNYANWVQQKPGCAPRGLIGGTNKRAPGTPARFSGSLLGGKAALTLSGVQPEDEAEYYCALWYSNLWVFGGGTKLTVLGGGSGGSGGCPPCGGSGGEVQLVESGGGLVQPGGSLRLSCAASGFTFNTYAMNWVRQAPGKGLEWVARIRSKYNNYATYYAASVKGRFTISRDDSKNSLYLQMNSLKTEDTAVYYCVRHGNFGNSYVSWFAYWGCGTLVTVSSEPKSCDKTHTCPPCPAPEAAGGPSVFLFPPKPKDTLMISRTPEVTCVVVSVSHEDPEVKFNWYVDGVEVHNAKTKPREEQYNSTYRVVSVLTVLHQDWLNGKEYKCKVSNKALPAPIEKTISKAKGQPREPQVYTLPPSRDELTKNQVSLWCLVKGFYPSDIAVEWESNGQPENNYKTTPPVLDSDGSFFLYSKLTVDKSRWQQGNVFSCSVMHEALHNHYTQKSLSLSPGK
BCMB1055, sequence (chain): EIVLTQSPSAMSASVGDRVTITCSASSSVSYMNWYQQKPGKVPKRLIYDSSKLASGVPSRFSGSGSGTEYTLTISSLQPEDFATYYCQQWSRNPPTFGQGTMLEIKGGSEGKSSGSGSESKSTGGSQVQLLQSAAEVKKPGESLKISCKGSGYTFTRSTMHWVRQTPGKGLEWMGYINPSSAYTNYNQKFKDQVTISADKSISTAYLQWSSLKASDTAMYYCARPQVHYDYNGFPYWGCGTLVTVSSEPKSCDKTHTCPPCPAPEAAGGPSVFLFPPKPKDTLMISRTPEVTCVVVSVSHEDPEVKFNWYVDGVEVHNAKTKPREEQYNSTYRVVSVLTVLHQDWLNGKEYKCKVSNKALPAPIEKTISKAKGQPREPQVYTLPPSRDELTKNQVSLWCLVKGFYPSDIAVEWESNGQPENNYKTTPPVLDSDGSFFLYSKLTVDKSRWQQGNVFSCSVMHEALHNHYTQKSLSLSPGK
BCMB1050, sequence (chain): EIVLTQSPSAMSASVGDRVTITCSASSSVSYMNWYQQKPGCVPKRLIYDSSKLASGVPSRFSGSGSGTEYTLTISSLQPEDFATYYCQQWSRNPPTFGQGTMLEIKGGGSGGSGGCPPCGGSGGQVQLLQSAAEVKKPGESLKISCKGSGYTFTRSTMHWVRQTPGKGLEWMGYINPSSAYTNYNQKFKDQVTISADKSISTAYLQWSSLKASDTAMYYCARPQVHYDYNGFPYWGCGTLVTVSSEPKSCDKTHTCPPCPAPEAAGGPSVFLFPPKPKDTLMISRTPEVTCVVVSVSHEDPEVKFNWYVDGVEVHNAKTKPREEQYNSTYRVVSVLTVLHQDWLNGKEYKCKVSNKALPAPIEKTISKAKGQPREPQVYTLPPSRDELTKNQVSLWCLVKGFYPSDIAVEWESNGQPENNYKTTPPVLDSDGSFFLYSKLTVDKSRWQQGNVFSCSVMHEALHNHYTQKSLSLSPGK

| Binder | Bottom of fit, CD4/CD25+ T cell activation [1] | Bottom of fit, CD8/CD25+ T cell activation [1] | EC50 (nM), CD4/CD25+ T cell activation [1] [nM] | EC50 (nM), CD8/CD25+ T cell activation [1] [nM] | Top of fit (Cmax), CD4/CD25+ T cell activation [1] | Top of fit (Cmax), CD8/CD25+ T cell activation [1] | Bottom of fit, % Cytolysis [2] [%] | EC50 (nM), % Cytolysis [2] [nM] | Top of fit (Cmax), % Cytolysis [2] [%] | Kd (CD3W220.001) [nM] | koff (CD3W220.001) [s⁻¹] | kon (CD3W220.001) [M⁻¹ s⁻¹] | Kd (BCMA (BCMW37.DB.001)) [nM] | koff (BCMA (BCMW37.DB.001)) [s⁻¹] | kon (BCMA (BCMW37.DB.001)) [M⁻¹ s⁻¹] |
| --- | --- | --- | --- | --- | --- | --- | --- | --- | --- | --- | --- | --- | --- | --- | --- |
| BCMB1055 (bispecific antibody, human IgG1, kappa, L234A L235A, Humanized anti-BCMA Fab × anti-CD3 scFv-Fc, knob-in-hole Fc; also called BCMB1055.001; BCMB749h × Cris7b scFv) light: DIQMTQSPSSVSASVGDRVTITCKASQNVGTAVAWYQQKPGQSPKLLIYSASNRYTGVPSRFSGSGSGTDFTLTISSLQPEDFATYFCQQYGSSPWTFGGGTKVEIKRTVAAPSVFIFPPSDEQLKSGTASVVCLLNNFYPREAKVQWKVDNALQSGNSQESVTEQDSKDSTYSLSSTLTLSKADYEKHKVYACEVTHQGLSSPVTKSFNRGEC heavy: QVQLVQSGAEVKKPGASVKVSCKASGYTFTNNVMHWVRQAPGQGLEWMGYILPYNDGTKYNQKFQGRVTLTSDKSASTAYMELSSLRSEDTAVYYCARYDYDGYFDYWGQGTTVTVSSASTKGPSVFPLAPSSKSTSGGTAALGCLVKDYFPEPVTVSWNSGALTSGVHTFPAVLQSSGLYSLSSVVTVPSSSLGTQTYICNVNHKPSNTKVDKKVEPKSCDKTHTCPPCPAPEAAGGPSVFLFPPKPKDTLMISRTPEVTCVVVSVSHEDPEVKFNWYVDGVEVHNAKTKPREEQYNSTYRVVSVLTVLHQDWLNGKEYKCKVSNKALPAPIEKTISKAKGQPREPQVYTLPPSREEMTKNQVSLSCAVKGFYPSDIAVEWESNGQPENNYKTTPPVLDSDGSFFLVSKLTVDKSRWQQGNVFSCSVMHEALHNRFTQKSLSLSPGK not shown | 7.46 | 0.97 | 0.0447 | 0.0859 | 87.4 | 81.2 | 16.1 | 0.0301 | 93.2 | 746 | 0.199 | 267000 | 1.77 | 0.0223 | 1.26e+07 |
| BCMB1050 (bispecific antibody, human IgG1, kappa, L234A L235A, Humanized anti-BCMA Fab × stapled anti-CD3 scFv-Fc, knob-in-hole Fc; also called BCMB1050.001; BCMB749h × Cris7b spFv) light: DIQMTQSPSSVSASVGDRVTITCKASQNVGTAVAWYQQKPGQSPKLLIYSASNRYTGVPSRFSGSGSGTDFTLTISSLQPEDFATYFCQQYGSSPWTFGGGTKVEIKRTVAAPSVFIFPPSDEQLKSGTASVVCLLNNFYPREAKVQWKVDNALQSGNSQESVTEQDSKDSTYSLSSTLTLSKADYEKHKVYACEVTHQGLSSPVTKSFNRGEC heavy: QVQLVQSGAEVKKPGASVKVSCKASGYTFTNNVMHWVRQAPGQGLEWMGYILPYNDGTKYNQKFQGRVTLTSDKSASTAYMELSSLRSEDTAVYYCARYDYDGYFDYWGQGTTVTVSSASTKGPSVFPLAPSSKSTSGGTAALGCLVKDYFPEPVTVSWNSGALTSGVHTFPAVLQSSGLYSLSSVVTVPSSSLGTQTYICNVNHKPSNTKVDKKVEPKSCDKTHTCPPCPAPEAAGGPSVFLFPPKPKDTLMISRTPEVTCVVVSVSHEDPEVKFNWYVDGVEVHNAKTKPREEQYNSTYRVVSVLTVLHQDWLNGKEYKCKVSNKALPAPIEKTISKAKGQPREPQVYTLPPSREEMTKNQVSLSCAVKGFYPSDIAVEWESNGQPENNYKTTPPVLDSDGSFFLVSKLTVDKSRWQQGNVFSCSVMHEALHNRFTQKSLSLSPGK not shown | 8.05 | 1.32 | 0.0222 | 0.0343 | 86.4 | 80.1 | 17 | 0.0141 | 94.6 | 657 | 0.121 | 184000 | 1.75 | 0.021 | 1.2e+07 |
| BCMB1049 (bispecific antibody, human IgG1, kappa, L234A L235A, Humanized anti-BCMA Fab × stapled anti-CD3 (CD3B219) scFv-Fc, knob-in-hole Fc; also called BCMB1049.001; BCMB749h × CD3B219 spFv) light: DIQMTQSPSSVSASVGDRVTITCKASQNVGTAVAWYQQKPGQSPKLLIYSASNRYTGVPSRFSGSGSGTDFTLTISSLQPEDFATYFCQQYGSSPWTFGGGTKVEIKRTVAAPSVFIFPPSDEQLKSGTASVVCLLNNFYPREAKVQWKVDNALQSGNSQESVTEQDSKDSTYSLSSTLTLSKADYEKHKVYACEVTHQGLSSPVTKSFNRGEC heavy: QVQLVQSGAEVKKPGASVKVSCKASGYTFTNNVMHWVRQAPGQGLEWMGYILPYNDGTKYNQKFQGRVTLTSDKSASTAYMELSSLRSEDTAVYYCARYDYDGYFDYWGQGTTVTVSSASTKGPSVFPLAPSSKSTSGGTAALGCLVKDYFPEPVTVSWNSGALTSGVHTFPAVLQSSGLYSLSSVVTVPSSSLGTQTYICNVNHKPSNTKVDKKVEPKSCDKTHTCPPCPAPEAAGGPSVFLFPPKPKDTLMISRTPEVTCVVVSVSHEDPEVKFNWYVDGVEVHNAKTKPREEQYNSTYRVVSVLTVLHQDWLNGKEYKCKVSNKALPAPIEKTISKAKGQPREPQVYTLPPSREEMTKNQVSLSCAVKGFYPSDIAVEWESNGQPENNYKTTPPVLDSDGSFFLVSKLTVDKSRWQQGNVFSCSVMHEALHNRFTQKSLSLSPGK not shown | 8.58 | 1.65 | 0.0409 | 0.0744 | 86.8 | 77 | 16.5 | ~0.0348 | 92.7 | 23.6 | 0.00205 | 86900 | 1.59 | 0.0219 | 1.38e+07 |
| BCMB1052 (bispecific antibody, human IgG1, kappa, L234A L235A, Murine anti-BCMA Fab × stapled anti-CD3 scFv-Fc, knob-in-hole Fc; also called BCMB1052.001; BCMB749 × Cris7b spFv) light: DIVMTQSQKFMSTTVGDRVSITCKASQNVGTAVAWYQQKPGQSPKLLIYSASNRYTGVPDRFTGTGSGTDFTLTIINVQSEDLADYFCQQYGSSPWTFGGGTKLEIKRTVAAPSVFIFPPSDEQLKSGTASVVCLLNNFYPREAKVQWKVDNALQSGNSQESVTEQDSKDSTYSLSSTLTLSKADYEKHKVYACEVTHQGLSSPVTKSFNRGEC heavy: QVQLQQSGAELVKPGASVKLSCKASGYTFTNNVMHWVRQKPGQGLEWIGYILPYNDGTKYNEKFKGKATLTSDKSSSTAYMELSSLTSEDSAVYYCARYDYDGYFDYWGQGTTLTVSSASTKGPSVFPLAPSSKSTSGGTAALGCLVKDYFPEPVTVSWNSGALTSGVHTFPAVLQSSGLYSLSSVVTVPSSSLGTQTYICNVNHKPSNTKVDKKVEPKSCDKTHTCPPCPAPEAAGGPSVFLFPPKPKDTLMISRTPEVTCVVVSVSHEDPEVKFNWYVDGVEVHNAKTKPREEQYNSTYRVVSVLTVLHQDWLNGKEYKCKVSNKALPAPIEKTISKAKGQPREPQVYTLPPSREEMTKNQVSLSCAVKGFYPSDIAVEWESNGQPENNYKTTPPVLDSDGSFFLVSKLTVDKSRWQQGNVFSCSVMHEALHNRFTQKSLSLSPGK not shown | 8.12 | 0.941 | 0.0627 | 0.117 | 80.9 | 73.5 | 15.4 | 0.0489 | 93.4 | 502 | 0.105 | 210000 | 2.74 | 0.039 | 1.42e+07 |
